Like-named read-outs stand apart in the source and are kept apart here.
Legend:
[1] = target: high-affinity receptor for bFGF on bovine capillary endothelial (BCE) cells (bovine (endogenous in BCE cells)); test: radioligand binding
[2] = target: high-affinity receptor for bFGF on bovine capillary endothelial (BCE) cells (bovine (endogenous in BCE cells)); test: radioligand binding; remark: listed apart in the source

fmol bFGF bound to high affinity sites [1]: 2.6 fmol | fmol bFGF bound to high affinity sites [2]: 3.1 fmol
Substance: 125I-labeled basic fibroblast growth factor (125I-bFGF) (from UniProt P09038 1-288) (ligand)

— paper PMC2115214
